The target of test [1] is T1, human TF on MDA-MB-231 cells (25A3-Alexa488 binding) (Homo sapiens, UniProt P13726).
T1 construct: TF-positive MDA-MB-231 cells (ATCC, Manassas, Va., USA); host or cells: MDA-MB-231
As to the kind of experiment: Antibody competition assay with 25A3. The conditions noted are these: pre-incubation with unlabeled competitor antibody. As to the method:
(§1) Alexa Fluor antibodies were generated using Alexa Fluor 488 5-sulfo-[…] esters (ThermoFisher Scientific) following manufacturer's protocol. Excess Alexa Fluor dye was removed from the antibody dye conjugate preparations by gel filtration (ThermoFisher Scientific).
(§2) After another 1 hr incubation on ice, cells were washed, stained with a viability dye, and analyzed by flow cytometry. The Alexa488 fluorescence data from viable cells was summarized using median fluorescence intensity.

Test [2] has as its target T2, human TF on MDA-MB-231 cells (43D7-Alexa488 binding) (Homo sapiens, UniProt P13726).
T2 construct: TF-positive MDA-MB-231 cells (ATCC, Manassas, Va., USA); host or cells: MDA-MB-231
The test is described as follows: Antibody competition assay with 43D7. The following applies: pre-incubation with unlabeled competitor antibody. How it is done:
as §1, §2

The target of test [3] is T3, human, rat and chimeric human-rat TF constructs expressed on HEK293 cells (Homo sapiens, UniProt P13726).
T3 construct: expressed in transfected cells; host or cells: HEK293
As to the kind of experiment: Live cell staining assay on chimeric TF constructs (epitope binning). Format: cell-based. The following applies: construct hTF. As to the method:
(§3) To establish binding of the anti-human TF antibodies to the various TF constructs, HEK293 cells were transfected with a DNA plasmid that co-expresses the TF construct and a green fluorescent protein marker. […] Two days after transfection, cells were collected from the tissue culture plate, stained with 15 μg/ml of the indicated anti-TF antibody, washed, stained with anti-human IgG-Fc Alexa Fluor 647 polyclonal antibody, washed, and stained with the viability dye 4′,6-Diamidino-2-Phenylindole, Dihydrochloride. Upon acquisition of 80,000 live events on a flow cytometer, live cells marked with the fluorescent marker were analyzed for the degree of staining by the anti-TF antibody. […] As used herein, the term “live cell staining assay” refers to the antibody binding assay used in this example.
(§4) When “Percentage antibody binding to TF construct relative to hTF” in Tables 51 and 52 was less than 50%, the antibody was considered a non-binder (0) in Tables 53 and 54.
(§5) Each antibody was assigned to an epitope bin in Table 55 based on the combination of unbound constructs from Table 53.

Test [4] concerns the target T4, human, rat and chimeric human-rat TF constructs expressed on HEK293 cells (Homo sapiens, UniProt P13726, A112W/A121G/E116T/E127T/E131K/E137D/G113R/G119T/G122E/L125P/L136R/N139K/P130R/S117H/S120H/S129A/T118G/T133L/V115S/Y110V/Y126F).
T4 construct: expressed in transfected cells; host or cells: HEK293
Described as above. The format is cell-based. The following applies: construct h78-107_r (21), human segment replaced by rat segment. As to the method: as §3, §4, §5

In test [5] the target is T5, human, rat and chimeric human-rat TF constructs expressed on HEK293 cells (Homo sapiens, UniProt P13726, A200N/K201T/N203H).
T5 construct: expressed in transfected cells; host or cells: HEK293
The test is described as above. The format is cell-based. The following applies: construct h167-174_r (3), human segment replaced by rat segment. How it is done:
as §3, §4, §5

Test [6] addresses T6, human, rat and chimeric human-rat TF constructs expressed on HEK293 cells (Homo sapiens, UniProt P13726, D177Q/N170G/R168K/S174T).
T6 construct: expressed in transfected cells; host or cells: HEK293
Described as above. Format: cell-based. The following applies: construct h133-145_r (4), human segment replaced by rat segment. As to the method:
as §3, §4, §5

Test [7] concerns the target T7, human, rat and chimeric human-rat TF constructs expressed on HEK293 cells (Homo sapiens, UniProt P13726, D212E/E215V/N216S/S220F/V221A).
T7 construct: expressed in transfected cells; host or cells: HEK293
Described as above. Format: cell-based. The conditions noted are these: construct h175-189_r (5), human segment replaced by rat segment. As to the method:
as §3, §4, §5

In test [8] the target is T8, human, rat and chimeric human-rat TF constructs expressed on HEK293 cells (Homo sapiens, UniProt P13726, D76N/F108L/F82T/G75R/K100N/K73R/L104E/Q101W/S79Y/T72D/Y83G).
T8 construct: expressed in transfected cells; host or cells: HEK293
Described as above. Format: cell-based. The following applies: construct h39-77_r (11), human segment replaced by rat segment. As to the method: as §3, §4, §5

For test [9], the target named is T9, human, rat and chimeric human-rat TF constructs expressed on HEK293 cells (Homo sapiens, UniProt P13726, E127T/E131K/E137D/L136R/N139K/P130R/S129A/T133L/Y126F).
T9 construct: expressed in transfected cells; host or cells: HEK293
Described as above. Format: cell-based. The following applies: construct h94-107_r (9), human segment replaced by rat segment. As to the method:
as §3, §4, §5

Test [10] has as its target T10, human, rat and chimeric human-rat TF constructs expressed on HEK293 cells (Homo sapiens, UniProt P13726, I184G/K181N/T186I/W190R/Y188T).
T10 construct: expressed in transfected cells; host or cells: HEK293
The test is described as above. The following applies: construct h146-158_r (5), human segment replaced by rat segment. The format is cell-based. How it is done:
as §3, §4, §5

The target in test [11] is T11, human, rat and chimeric human-rat TF constructs expressed on HEK293 cells (Homo sapiens, UniProt P13726, K197R/S192D/S195T).
T11 construct: expressed in transfected cells; host or cells: HEK293
The test is described as above. The conditions noted are these: construct h159-166_r (3), human segment replaced by rat segment. The format is cell-based. How it is done: as §3, §4, §5

Test [12] concerns the target T12, human, rat and chimeric human-rat TF constructs expressed on HEK293 cells (Homo sapiens, UniProt P13726, N170G/R168K).
T12 construct: expressed in transfected cells; host or cells: HEK293
The test is described as above. The format is cell-based. The following applies: construct h133-139_r (2), human segment replaced by rat segment. How it is done:
as §3, §4, §5

Test [13] addresses T13, human, rat and chimeric human-rat TF constructs expressed on HEK293 cells (Homo sapiens, UniProt P13726, S192D).
T13 construct: expressed in transfected cells; host or cells: HEK293
Described as above. Format: cell-based. The conditions noted are these: construct h159-219_r (27), human segment replaced by rat segment. As to the method: as §3, §4, §5

The target of test [14] is T14, human, rat and chimeric human-rat TF constructs expressed on HEK293 cells (Rattus norvegicus, UniProt P42533).
T14 construct: expressed in transfected cells; host or cells: HEK293
The test is described as above. Format: cell-based. The following applies: construct rTF. As to the method: as §3, §4, §5

Test [15] addresses T15, human, rat and chimeric human-rat TF constructs expressed on HEK293 cells (Rattus norvegicus, UniProt P42533, A222V/D193S/E213D/F221S/G171N/G185I/H204N/I187T/K169R/N182K/N201A/Q178D/R191W/R198K/S217N/T175S/T189Y/T196S/T202K/V216E).
T15 construct: expressed in transfected cells; host or cells: HEK293
The test is described as above. The format is cell-based. The following applies: construct r141-194_h, rat amino acid segment replaced by human segment (20 amino acid changes). How it is done: as §3, §4, §5

Test [16] deals with human, rat and chimeric human-rat TF constructs expressed on HEK293 cells. The description is as above. Format: cell-based. The conditions noted are these: for Antibody binding to TF construct: human segment replaced by rat segment. As to the method:
as §3, §4, §5

In the case of TF-011 [reference compound], in test [1], the “% 25A3 binding” value was “did not reduce”. Also, the “% 43D7 binding” value in test [2] is “did not reduce”. In addition, the “Antibody binding to TF construct” value in [3] (Table 54) is 1 (between 50% and 150%, the antibody was considered a binder (1)); in test [3], 1 (between 50% and 150%, the antibody was considered a binder (1)); in test [4], 0 (less than 50%, the antibody was considered a non-binder (0)); in [5], 1 (between 50% and 150%, the antibody was considered a binder (1)); in [6], 1 (between 50% and 150%, the antibody was considered a binder (1)); in test [7] it was 1 (between 50% and 150%, the antibody was considered a binder (1)). Further, the “Antibody binding to TF construct” value is 0 (less than 50%, the antibody was considered a non-binder (0)) in test [8]; 0 (less than 50%, the antibody was considered a non-binder (0)) in test [9]; 1 (between 50% and 150%, the antibody was considered a binder (1)) in [10]; 1 (between 50% and 150%, the antibody was considered a binder (1)) in [11]; 1 (between 50% and 150%, the antibody was considered a binder (1)) in [12]; 1 (between 50% and 150%, the antibody was considered a binder (1)) in test [13]. For the same substance, the “Antibody binding to TF construct” value was 0 (less than 50%, the antibody was considered a non-binder (0)) in [14] (Table 54); 0 (less than 50%, the antibody was considered a non-binder (0)) in [14]; 0 (less than 50%, the antibody was considered a non-binder (0)) in test [15]; 1 (between 50% and 150%, the antibody was considered a binder (1)) in [16] (construct h1-38_r (14)); 0 (less than 50%, the antibody was considered a non-binder (0)) in [16] (construct h1-77_r (25)); 0 (less than 50%, the antibody was considered a non-binder (0)) in test [16] (construct h1-107_r (52)). Besides, the “Antibody binding to TF construct” value in test [16] (construct h78-93_r (18)) was 1 (between 50% and 150%, the antibody was considered a binder (1)); in [16] (construct h78-107_r.v2 (27)), 0 (less than 50%, the antibody was considered a non-binder (0)). For the same substance, in [16] (assignment based on unbound chimeric constructs), the “Epitope Bin” value was found to be 1. Further, in test [16] (chimeric human-rat TF constructs of Table 53), the “Constructs not bound by antibody” value is “rTF, h1-107_r, h1-77_r, h39-77_r, h78-107_r, h78-107_r.v2, h94-107_r”.

The values are drawn from patent US11447566B2, “Anti-tissue factor antibodies, antibody-drug conjugates, and related methods” (Iconic Therapeutics, Inc., priority 2018, dated 2022).
